Survival rate data for two molecules are collected here from US20040023858A1, “Antifungal combination therapy” (priority 2000, published 2004).

The test system of this test is Candida albicans FP633. In words: Survival of neutropenic mice with disseminated candidiasis (G-CSF and Test Compound, alone and combined). The conditions noted are these: C. albicans, day 6 after infection. It is filed as in vivo, ICR mice. Here is the method: Disseminated candidiasis were induced in ICR mice by the intravenous inoculation of 0.2 ml of cell suspension of Candida albicans FP633 via their lateral tail veins. Cyclophosphamide was administered intraperitoneally at 200 mg/kg 4 days before and 1 day after infection. G-CSF was administered intraperitoneally once daily for 5 days starting at 3 days before infection. Test Compound was administered once daily for 4 days starting at 1 hour after infection by intravenous injection. The survival rate (%) was calculated at 6 days after infection.
1) Survival rate of neutropenic mice infected with C. albicans on day 6 after infection

For `CCCCCOc1ccc(-c2cc(-c3ccc(C(=O)NC4CC(O)C(O)NC(=O)C5C(O)C(C)CN5C(=O)C(C(O)CC(N)=O)NC(=O)C(C(O)C(O)c5ccc(O)c(OS(=O)(=O)[O-])c5)NC(=O)C5CC(O)CN5C(=O)C(C(C)O)NC4=O)cc3)no2)cc1.[Na+]` (stereo not shown) [Test Compound], the Survival rate (Test Compound 0.2 mg/kg i.v. once daily for 4 days, G-CSF 0 μg/kg, cyclophosphamide-treated neutropenic ICR mice) is 25%.

B1: G-CSF: granulocyte colony stimulating factor, stimulates the production of white blood cells (protein, UniProt P09919 31-207, looked up)
Granulocyte …: TPLGPASSLPQSFLLKCLEQVRKIQGDGAALQEKLVSECATYKLCHPEELVLLGHSLGIPWAPLSSCPSQALQLAGCLSQLHSGLFLYQGLLQALEGISPELGPTLDTLQLDVADFATTIWQQMEELGMAPALQPTQGAMPAFASAFQRRAGGVLVASHLQSFLEVSYRVLRHLAQP
Take B1: the Survival rate by setting is: (G-CSF 2.5 μg/kg i.p. once daily for 5 days, Test Compound 0 mg/kg, neutropenic ICR mice) 0%; (G-CSF 5 μg/kg i.p. once daily for 5 days, Test Compound 0 mg/kg, neutropenic ICR mice) 25%; (G-CSF 10 μg/kg i.p. once daily for 5 days, Test Compound 0 mg/kg, neutropenic ICR mice) 50%.
